The source of these data is US20200199241A1 (Chugai, published 2020).

Where a chain is given by its changes, count along the chain named.

B1: IgG1-F1185 (antibody)
heavy: QVQLQESGPGLVKPSETLSLTCAVSGHSISHDHAWSWVRQPPGEGLEWIGFISYSGITNYNPSLQGRVTISRDNSKNTLYLQMNSLRAEDTAVYYCARSLARTTAMDYWGEGTLVTVSSASTKGPSVFPLAPSSKSTSGGTAALGCLVKDYFPEPVTVSWNSGALTSGVHTFPAVLQSSGLYSLSSVVTVPSSSLGTQTYICNVNHKPSNTKVDKKVEPKSCDKTHTCPPCPAPELLGGPSVFLFPPKPKDTLMISRTPEVTCVVVDVSHEDPEVKFNWYVDGVEVHNAKTKPREEQYNSTYRVVSVLAVLHQDWLNGKEYKCKVSNKALPAPIEKTISKAKGQPREPQVYTLPPSRDELTKNQVSLTCLVKGFYPSDIAVAWESNGQPENNYKTTPPVLDSDGSFFLYSKLTVDKSRWQQGNVFSCSVLHEALHSHYTQKSLSLSP
light: not shown
notes: EU numbering; copies: 2 + 2
B2: IgG1-F1198 (antibody)
heavy: B1 heavy with M254Y, T258E, A309T, A382E, L430M, S436Y, Y438V, Q440R, S442E
light: not shown
notes: EU numbering; copies: 2 + 2
B3: IgG1-F1257 (antibody)
heavy: B1 heavy with L237R, S241K, M254Y, Q313A, A382E, L430M, S436Y, Y438V, Q440R, S442E
light: not shown
notes: EU numbering; copies: 2 + 2
B4: IgG1-F1194 (antibody)
heavy: B1 heavy with M254Y, A309T, A382E, L430M, S436Y, Y438V, Q440R, K441D, S442E
light: not shown
notes: EU numbering; copies: 2 + 2
B5: IgG1-F1217 (antibody)
heavy: B1 heavy with L253T, M254Y, A309T, A382E, L430M, S436Y, Y438V
light: not shown
notes: EU numbering; copies: 2 + 2
B6: IgG1-F1267 (antibody)
heavy: QVQLQESGPGLVKPSETLSLTCAVSGHSISHDHAWSWVRQPPGEGLEWIGFISYSGITNYNPSLQGRVTISRDNSKNTLYLQMNSLRAEDTAVYYCARSLARTTAMDYWGEGTLVTVSSASTKGPSVFPLAPSSKSTSGGTAALGCLVKDYFPEPVTVSWNSGALTSGVHTFPAVLQSSGLYSLSSVVTVPSSSLGTQTYICNVNHKPSNTKVDKKVEPKSCDKTHTCPPCPAPELRGGPKVFLFPPKPKDTLYIARTPEVTCVVVDVSHEDPEVKFNWYVDGVEVHNAKTKPREEQYNSTYRVVSVLTVLHQDWLNGKEYKCKVSNKALPAPIEKTISKAKGQPREPQVYTLPPSRDELTKNQVSLTCLVKGFYPSDIAVEWESNGQPENNYKTTPPVLDSDGSFFLYSKLTVDKSRWQQGNVFSCSVMHEALHYHVTRKELSLSP
light: not shown
notes: EU numbering; copies: 2 + 2
B7: IgG1-F1266 (antibody)
heavy: B6 heavy with A256S, T258N
light: not shown
notes: EU numbering; copies: 2 + 2
B8: IgG1-F1263 (antibody)
heavy: B6 heavy with A256S, R440K, E442D
light: not shown
notes: EU numbering; copies: 2 + 2
B9: IgG1-F1232 (antibody)
heavy: B6 heavy with R237L, K241S, A256S, R440K, E442D
light: not shown
notes: EU numbering; copies: 2 + 2
B10: IgG1-F1259 (antibody)
heavy: B6 heavy with A256S, T309Q, Q313A
light: not shown
notes: EU numbering; copies: 2 + 2
B11: IgG1-F1250 (antibody)
heavy: B6 heavy with A256T, T258Q
light: not shown
notes: EU numbering; copies: 2 + 2
B12: IgG1-F1274 (antibody)
heavy: B6 heavy with A256S, T258Q, H435D
light: not shown
notes: EU numbering; copies: 2 + 2
B13: IgG1-F1261 (antibody)
heavy: B6 heavy with A256S, E442D
light: not shown
notes: EU numbering; copies: 2 + 2
B14: IgG1-F1206 (antibody)
heavy: B6 heavy with R237L, K241S, T252V, A256T, T258Q
light: not shown
notes: EU numbering; copies: 2 + 2
B15: IgG1-F1262 (antibody)
heavy: B6 heavy with A256S, R440K
light: not shown
notes: EU numbering; copies: 2 + 2
B16: IgG1-F1195 (antibody)
heavy: B6 heavy with R237L, K241S, A256S, L443A
light: not shown
notes: EU numbering; copies: 2 + 2
B17: IgG1-F1199 (antibody)
heavy: B6 heavy with R237L, K241S, A256T, T258E
light: not shown
notes: EU numbering; copies: 2 + 2
B18: IgG1-F1202 (antibody)
heavy: B6 heavy with R237L, K241S, T252V, A256T, T258E
light: not shown
notes: EU numbering; copies: 2 + 2
B19: IgG1-F1244 (antibody)
heavy: B6 heavy with A256S, T258E
light: not shown
notes: EU numbering; copies: 2 + 2
B20: IgG1-F1247 (antibody)
heavy: B6 heavy with T252V, A256S, T258E
light: not shown
notes: EU numbering; copies: 2 + 2
B21: IgG1-F1249 (antibody)
heavy: B6 heavy with A256S, T258Q
light: not shown
notes: EU numbering; copies: 2 + 2
B22: IgG1-F1258 (antibody)
heavy: B6 heavy with A256S, T309A, Q313H
light: not shown
notes: EU numbering; copies: 2 + 2
B23: IgG1-F1255 (antibody)
heavy: B6 heavy with A256S, Q313A
light: not shown
notes: EU numbering; copies: 2 + 2
B24: IgG1-F1205 (antibody)
heavy: B6 heavy with R237L, K241S, T252V, A256S, T258Q
light: not shown
notes: EU numbering; copies: 2 + 2
B25: IgG1-F1268 (antibody)
heavy: B6 heavy with A256S, H435D
light: not shown
notes: EU numbering; copies: 2 + 2
B26: IgG1-F1203 (antibody)
heavy: B6 heavy with R237L, K241S, A256S, T258Q
light: not shown
notes: EU numbering; copies: 2 + 2
B27: IgG1-F1188 (antibody)
heavy: B1 heavy with L430M, S436H
light: not shown
notes: EU numbering; copies: 2 + 2
B28: IgG1-F1200 (antibody)
heavy: B6 heavy with R237L, K241S, T252V, A256T
light: not shown
notes: EU numbering; copies: 2 + 2
B29: IgG1-F1265 (antibody)
heavy: B6 heavy with A256S, T258G
light: not shown
notes: EU numbering; copies: 2 + 2
B30: IgG1-F1260 (antibody)
heavy: B6 heavy with A256S, T309Q, Q313H
light: not shown
notes: EU numbering; copies: 2 + 2
B31: IgG1-F1252 (antibody)
heavy: B6 heavy with T252V, A256T, T258Q
light: not shown
notes: EU numbering; copies: 2 + 2
B32: IgG1-F1190 (antibody)
heavy: B6 heavy with R237L, K241S, A256S, H435E
light: not shown
notes: EU numbering; copies: 2 + 2
B33: IgG1-F1253 (antibody)
heavy: B6 heavy with A256S, T309A
light: not shown
notes: EU numbering; copies: 2 + 2
B34: IgG1-F1216 (antibody)
heavy: B6 heavy with R237L, K241S, L253S, A256S, R440Q, E442S
light: not shown
notes: EU numbering; copies: 2 + 2
B35: IgG1-F1248 (antibody)
heavy: B6 heavy with T252V, A256T, T258E
light: not shown
notes: EU numbering; copies: 2 + 2
B36: IgG1-F1197 (antibody)
heavy: B6 heavy with R237L, K241S, A256T
light: not shown
notes: EU numbering; copies: 2 + 2
B37: IgG1-F1273 (antibody)
heavy: B6 heavy with A256S, T258Q, R440K, E442D
light: not shown
notes: EU numbering; copies: 2 + 2
B38: IgG1-F1243 (antibody)
heavy: B6 heavy with A256T
light: not shown
notes: EU numbering; copies: 2 + 2
B39: IgG1-F1229 (antibody)
heavy: B6 heavy with R237L, K241S, I255V, A256S, R440Q, E442S
light: not shown
notes: EU numbering; copies: 2 + 2
B40: IgG1-F1218 (antibody)
heavy: B6 heavy with R237L, K241S, L253V, A256S, R440Q, E442S
light: not shown
notes: EU numbering; copies: 2 + 2
B41: IgG1-F1196 (antibody)
heavy: B6 heavy with R237L, K241S, A256S, L443E
light: not shown
notes: EU numbering; copies: 2 + 2
B42: IgG1-F1251 (antibody)
heavy: B6 heavy with T252V, A256S, T258Q
light: not shown
notes: EU numbering; copies: 2 + 2
B43: IgG1-F1275 (antibody)
heavy: B6 heavy with A256S, T258Q, H435D, R440K, E442D
light: not shown
notes: EU numbering; copies: 2 + 2
B44: IgG1-F1264 (antibody)
heavy: B6 heavy with A256S, T258A
light: not shown
notes: EU numbering; copies: 2 + 2
B45: IgG1-F1231 (antibody)
heavy: B6 heavy with R237L, K241S, A256S, R440K
light: not shown
notes: EU numbering; copies: 2 + 2
B46: IgG1-F1271 (antibody)
heavy: B6 heavy with H435D
light: not shown
notes: EU numbering; copies: 2 + 2
B47: IgG1-F1204 (antibody)
heavy: B6 heavy with R237L, K241S, A256T, T258Q
light: not shown
notes: EU numbering; copies: 2 + 2
B48: IgG1-F1246 (antibody)
heavy: B6 heavy with T252V, A256T
light: not shown
notes: EU numbering; copies: 2 + 2
B49: IgG1-F1208 (antibody)
heavy: B6 heavy with R237L, K241S, L253A, A256S, R440Q, E442S
light: not shown
notes: EU numbering; copies: 2 + 2
B50: IgG1-F1191 (antibody)
heavy: B6 heavy with R237L, K241S, A256S, T439A
light: not shown
notes: EU numbering; copies: 2 + 2
B51: IgG1-F1207 (antibody)
heavy: B1 heavy with A309T, I334E, A382E
light: not shown
notes: EU numbering; copies: 2 + 2
B52: IgG1-F1230 (antibody)
heavy: B6 heavy with R237L, K241S, A256S, E442D
light: not shown
notes: EU numbering; copies: 2 + 2
B53: IgG1-F1201 (antibody)
heavy: B6 heavy with R237L, K241S, T252V, A256S, T258E
light: not shown
notes: EU numbering; copies: 2 + 2
B54: IgG1-F1256 (antibody)
heavy: B6 heavy with A256S, Q313H
light: not shown
notes: EU numbering; copies: 2 + 2
B55: IgG1-F1245 (antibody)
heavy: B6 heavy with A256T, T258E
light: not shown
notes: EU numbering; copies: 2 + 2

T1 sequence (chain, as listed by the source limits assumed, chain 1 of 2): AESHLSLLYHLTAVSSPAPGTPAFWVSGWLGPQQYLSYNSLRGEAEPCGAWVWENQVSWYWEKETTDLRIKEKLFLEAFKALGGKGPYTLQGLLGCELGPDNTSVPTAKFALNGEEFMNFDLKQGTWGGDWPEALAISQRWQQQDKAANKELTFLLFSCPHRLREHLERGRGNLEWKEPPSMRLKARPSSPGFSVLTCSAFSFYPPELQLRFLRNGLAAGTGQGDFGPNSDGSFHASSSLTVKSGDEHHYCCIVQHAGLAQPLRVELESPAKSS
T1 sequence (P61769 21-119 limits assumed, chain 2 of 2): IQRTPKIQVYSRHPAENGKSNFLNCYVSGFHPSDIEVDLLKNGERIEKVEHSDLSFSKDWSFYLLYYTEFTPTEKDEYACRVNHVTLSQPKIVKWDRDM

This test has as its target T1, soluble human FcRn complexed with β2-microglobulin (human, UniProt P61769 21-119, limits assumed).
T1 construct: also called hFcRn
The experiment in a line: Biacore SPR, pH 7.0.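 Note: test antibodies captured on a Protein L chip with human FcRn flowed over as analyte, KD obtained as the ratio of dissociation to association rate constants.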 Background: In SPR one partner is held on a chip, and binding of the other changes the refractive index at the surface.
With B1, binding was characterised by a dissociation constant (Kd) of 917 nM. With B2, binding was put at a Kd of 78.3 nM. For B3 the value was 78.1 nM; for B4, 155 nM; for B5, 1140 nM. Consider B6, for which binding was put at a Kd of 150 nM. The figure for B7 is 99.9 nM. Turning to B8, the Kd (in general, the constant that tells how readily two partners part at equilibrium) was 124 nM. The Kd values of the last two molecules are within 1.5-fold of each other. The figure for B9 is 97.9 nM. On to B10, for which the Kd was determined as 44.6 nM. For B11 the value was 166 nM. B12 returned a dissociation constant (Kd) of 248 nM. On to B13, for which binding was put at a Kd of 135 nM. This Kd is about 1.8-fold lower than that of the molecule before. The figure for B14 is 169 nM; for B15 it is 126 nM. For B16 the value was 176 nM; for B17, 62.5 nM; for B18, 88.1 nM.

B19 displayed a Kd of 102 nM.

Molecule B20 returned a Kd of 145 nM. Molecule B21 showed a Kd of 206 nM. The figure for B22 is 105 nM; for B23 it is 111 nM. For B24 the value was 198 nM. For B25 the value was 200 nM; for B26, 152 nM; for B27, 1720 nM. B28: the affinity, expressed as Kd, was 126 nM. Against the preceding molecule, the Kd is about 14-fold lower. For B29 the value was 157 nM; for B30, 65.3 nM. The figure for B31 is 233 nM; for B32 it is 240 nM; for B33 it is 112 nM. The figure for B34 is 1160 nM; for B35 it is 120 nM; for B36 it is 94.6 nM. In turn, B37 registered a dissociation constant (Kd) of 153 nM. The figure for B38 is 125 nM; for B39 it is 2810 nM. For B40 the value was 251 nM. As to B41, the affinity, expressed as Kd, was 151 nM.

B42 gave a Kd of 277 nM. The figure for B43 is 209 nM; for B44 it is 127 nM. The figure for B45 is 97.3 nM. B46 returned a Kd of 205 nM. The figure for B47 is 118 nM. As for B48, binding was put at a Kd of 173 nM.

On to B49, for which the equilibrium dissociation constant (Kd) turned out to be 571 nM. The figure for B50 is 211 nM; for B51 it is 1110 nM; for B52 it is 112 nM. The figure for B53 is 107 nM; for B54 it is 156 nM; for B55 it is 82 nM.
